Target: the single-site mutations V130C and L210C
Test: radioligand binding

## glucagon (from UniProt P01275) (peptide)
  glucagon binding (% of WT): 50%

— paper PMC5492955
